Measured values taken from paper PMC8998802.

Molecular target: CaVβ2a residues 203 to 425, His-tagged
Experiment: MST

Kd [nM]	Substance
18.3 to 93	AID-CaV2.1 peptide
12 to 208	AID-CaV2.2 peptide
